Results reported in patent US20190031754A1 (Scripps Research, published 2019).
Where a chain is given by its changes, count along the chain named. Read-outs that look alike come from different tables or passages of the source.

B1: chimeric rabbit/human Fab XBR2-416 (Fab, V domains shown)
VH: QEQLEESGGRLVTPGTPLTLTCTVSGFSLSSYWMSWVRQAPGKGLEWIGTITPGGNTDYATWAKARFTVSKTSTTVDLKITSPTTEDTATYFCARGIGGAADLWGPGTLVTISS
VL: AQVLTQTPSSTSAAVGGTVTIKCQASQSISSSDLSWYQQKPGQPPKLLIYATSYLASGVPSRFKGSGSGTEYTLTISGVQREDAATYYCLGGYPNTSYRSAFGGGTKVEIK
notes: also called Fab 4-16
B2: chimeric rabbit/human Fab ERR2-308 (Fab, V domains shown)
VH: QEQLEESGGRLVTPGTPLTLTCAVSGFSLSNYAMGWVRQAPGEGLEYIGWISAGGGAYYASWVNGRFTISKTSSTVDLKMTSLTAADTATYFCARGASNGCDLWGPGTLVTVSS
VL: DPMLTQTPSSVSAVVGGTVTIKCQASQSITSWLSWYQQKPGQPPKLLIYGASHLASGVPSRFKGSGYGTEFTLTISGIQREDAATYYCLGGYSNSDIVFGGGTELEIL
B3: chimeric rabbit/human Fab XBR2-401 (Fab, V domains shown)
VH: QSVKESEGGLFKPTDTLTLTCTVSGFSLSSYGVTWVRQAPGSGLEWIGYINTAGNTYYASWAKSRSTITRNTNENTVTLKMTSLTAADTATYFCARDWTSLNIWGPGTLVTVSS
VL: DPMLTQTPSSTSTAVGDTVTIKCQASQSISSDLSWYQQKPGQRPKLLIYQASTLASGVPSRFKGSGYGTEYTLTISGVQREDAAIYYCLGGYADASYRTAFGGGTKLEIK
notes: also called Fab 4-1
B4: XBR2-401 (mAb003) (antibody, human IgG1, V domains shown)
VH: B3 VH
VL: B3 VL
notes: Full-length chimeric rabbit/human IgG1 (kappa) with C-terminal tags HC: LPETG-Strep, LC: G5SLPETG-Strep
B5: chimeric rabbit/human Fab ERR2-302 (Fab, V domains shown)
VH: QKQLVESGGGLVKPGGSLTLTCTVSGFSLSSYAIGWVRQAPGNGLEWIGIINSYGSTYYASWAKSRSTITRNTNLNTVTLKMTSLTAADTATYFCARSPYGYVSAWGYHRLDLWGQGTLVTISS
VL: SYELTQLPSVSVSLGQTARITCGGASIGSKVVHWYQQKPGLAPGLLIYDDDERPSGVPDRFSGSNSGDTATLTISGAQAGDEAEYYCQLWDGSDVVFGGGTQLTVTG
B6: chimeric rabbit/human Fab ERR2-316 (Fab, V domains shown)
VH: QKQLVESGGRLVTPGGSLTLTCTVSGFSLSKYGVSWVRQAPGSGLEYIGTIGGSGTSYYASWAKSRSTITRNTNLNTVTLKMTSLTAADTATYFCARYFGWNTGFDIWGPGTLVTISS
VL: DPVMTQTPSSVSEPVGGTVTIKCQASQSISNALAWYQQKPGQPPKRLIYKASTPASGVPSRFKGSRSGTEYTLTISGVQREDAATYYCLGFSVVSNDGWAFGAGTNVEIK
B7: chimeric rabbit/human Fab XBR2-TOP72 (Fab, V domains shown)
VH: QEQLEESGGRLVTPGTPLTLTCTVSGIDLSSNAMSWVRQAPGKGLEYVGFINGGGGVHYASWARGRFTISKTSTTVDLKITSPTTEDTATYFCARAGTTYYTSFNLWGPGTLVTISS
VL: QFVLTQSPSASAALGSSAKLTCTLSSAHKTYTIAWYQQQQGEAPRLLMMLRTDGSYTKGTGVPDRFSGSSSGADRYLIISSVQADDAAGYYCGADYSGGYVFGGGTQLTVTG
B8: chimeric rabbit/human Fab ERR2-TOP2 (Fab, V domains shown)
VH: QSLEESGGRLVTPGTPLTLTCTVSGFSLSSYAISWVRQAPGKGLEWIGTIGTRGDTAYANWAKGRFTISKTSTTVTLKMTSPTTEDTATYFCARELVAGGGSDLWGPGTLVTVSS
VL: DVVMTQTPSSVSAVVGGTVTIKCQASQSITSWLSWYQQKPGQPPKLLIYGASHLASGVPSRFKGSGYGTEFTLTISGIQREDAATYYCLGGYLSASYQTAFGGGTKVEIK
B9: chimeric rabbit/human Fab ERR2-TOP35 (Fab, V domains shown)
VH: QSVKESEGGLFKPMDTLTLTCTVSGFSLNTYGVSWVRQAPGNGLEWIGAVGSSGATNYASWAKSRSTITRNTNENTVTLKMTSLTAADTATYFCARDGYYSSGWGPYFSIWGPGTLVTVSS
VL: SFVLTQPASVQVNLGQTVSLTCTAETLRSSYASWYQQKPGQAPVLLIYRDTSRPSGVPDRFSGSSSGNTATLTISGAQAGDEADYYCATSDGSGSRYYVFGGGTQLTVTG
B10: chimeric rabbit/human Fab XBR2-433 (Fab, V domains shown)
VH: B9 VH with M14T, N29S, V50I, A55S, T56A, S64D, E74L, S109N, V119I
VL: SFVLTQPASVQVNLGQTVSLTCTADTLSRSYASWYQQKPGQAPVLLIYRDTSRPSGVPDRFSGSSSGNTATLTISGAQAGDEADYYCATSGGSGSNPQYVFGGGTQLTVTG
notes: also called Fab 4-33
B11: chimeric rabbit/human Fab XBR2-327 (Fab, V domains shown)
VH: QEQLKESGGGLFKPTDTLTLTCTVSGFSLSSGAISWVRQAPGNGLEYIGFVNSLGNTYYANWAKSRSAITRNTNENTVTLKMTSLAAADTATYFCAKDYGNWAFDPWGPGTLVTVSS
VL: DPVLTQTPSSVSAAVGGTVAINCQASQSISSYLSWYQQKPGQPPKLLIYGASKLASGVPSRFSGSGSGTEYTLTISGVQREDAATYYCLGGYASASYRTAFGGGTKLEIK
B12: XBR2-327 (mAb007) (antibody, human IgG1, V domains shown)
VH: B11 VH
VL: B11 VL
notes: Full-length chimeric rabbit/human IgG1, human IgH-gamma1 and IgL-kappa constant regions; C-terminal tags HC: LPETG-Strep, LC: G5SLPETG-Strep
B13: chimeric rabbit/human Fab ERR2-317 (Fab, V domains shown)
VH: QSLEESGGRLVTPGTPLTLTCTASGFSLSSYDMIWVRQAPGKGLEYIGIINAGGNTYYASWAKGRFTISRTSTTVDLKMTSPTTEDTATYFCARGSSWTGDIWGPGTLVTVSS
VL: B11 VL with V11T, A20T, N22K, L46Q, G50A, K53T, S63K, R98Q, L107V

Columns and labels:
BSA = biological target: T1, BSA (bovine, UniProt P02769); assay: ELISA, coated antigen 100 ng/well, anti-His HRP, absorbance 405 nm
T1 construct: also called bovine serum albumin

hFc-hROR1 = biological target: T2, hFc-hROR1 (human, UniProt Q01973 30-403, limits assumed); assay: as above
T2 construct: also called ROR1 (ELISA control); not shown: human Fc (hFc) of pCEP4-hFc-hROR1 (Yang et al., 2011)

[1] = biological target: T3, anti-human Fc (Jackson ImmunoResearch, 109-006-008); assay: ELISA, IgG titrated on coated anti-human Fc; fit printed as IC50
T3 construct: Coated on a control plate to capture the chimeric IgG1 antibodies through their human Fc; also called IgG

[2] = biological target: T3, anti-human Fc (Jackson ImmunoResearch, …); assay: as above; remark: listed apart in the source
[3] = biological target: T4, recombinant human twin strep-tagged ROR2 extracellular domain (human, UniProt Q01974 34-403); assay: ELISA, IgG titrated on coated twin-strep human ROR2 ECD; fit printed as IC50
T4 construct: extracellular domain; Made in HEK293T, Streptactin purified; also called Human ROR2-TwinStrep; human ROR2

[4] = biological target: T4, recombinant human twin strep-tagged …; assay: as above; remark: listed apart in the source
[5] = biological target: T5, recombinant cynomolgus twin strep-tagged ROR2 extracellular domain (cynomolgus monkey, UniProt A0A7N9D5U8 34-403); assay: ELISA, IgG titrated on coated twin-strep cynomolgus ROR2 ECD; fit printed as IC50
T5 construct: extracellular domain; Made in HEK293T, Streptactin purified; also called cynomolgus ROR2; cynomolgus ROR2-TwinStrep

[6] = biological target: T4, recombinant human twin strep-tagged …; assay: SPR, Biacore T200, IgG captured by anti-human Fcγ, ROR2-TwinStrep as analyte, 1:1 Langmuir
[7] = biological target: T5, recombinant cynomolgus twin …; assay: as above
[8] = biological target: T6, full-length human ROR2 on cells (human, UniProt Q01974 34-943); assay: flow cytometry, 63-12 cells expressing hROR2, Fab 1 µg/100 µL, anti-His Alexa Fluor 488
T6 construct: whole, on cells; the cells are named under assay; In the Western blot it is denatured; also called hROR2; cell surface human ROR2

T1 sequence (P02769 25-607 limits assumed): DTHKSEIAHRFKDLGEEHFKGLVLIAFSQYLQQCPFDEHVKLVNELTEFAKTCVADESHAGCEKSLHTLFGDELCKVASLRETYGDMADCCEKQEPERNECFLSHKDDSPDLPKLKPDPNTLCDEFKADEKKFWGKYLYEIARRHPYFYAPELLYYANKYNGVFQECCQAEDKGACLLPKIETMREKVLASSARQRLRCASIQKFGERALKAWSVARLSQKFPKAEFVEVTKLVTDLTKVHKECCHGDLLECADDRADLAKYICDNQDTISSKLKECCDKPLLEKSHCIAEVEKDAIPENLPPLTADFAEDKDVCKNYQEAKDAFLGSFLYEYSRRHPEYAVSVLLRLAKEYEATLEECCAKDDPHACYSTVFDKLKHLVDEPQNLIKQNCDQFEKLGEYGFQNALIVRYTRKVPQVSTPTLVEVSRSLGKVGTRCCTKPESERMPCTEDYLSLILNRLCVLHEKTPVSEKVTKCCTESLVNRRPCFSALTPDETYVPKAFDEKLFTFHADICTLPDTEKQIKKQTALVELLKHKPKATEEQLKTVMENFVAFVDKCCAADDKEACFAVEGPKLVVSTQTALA
T2 sequence (Q01973 30-403 limits assumed): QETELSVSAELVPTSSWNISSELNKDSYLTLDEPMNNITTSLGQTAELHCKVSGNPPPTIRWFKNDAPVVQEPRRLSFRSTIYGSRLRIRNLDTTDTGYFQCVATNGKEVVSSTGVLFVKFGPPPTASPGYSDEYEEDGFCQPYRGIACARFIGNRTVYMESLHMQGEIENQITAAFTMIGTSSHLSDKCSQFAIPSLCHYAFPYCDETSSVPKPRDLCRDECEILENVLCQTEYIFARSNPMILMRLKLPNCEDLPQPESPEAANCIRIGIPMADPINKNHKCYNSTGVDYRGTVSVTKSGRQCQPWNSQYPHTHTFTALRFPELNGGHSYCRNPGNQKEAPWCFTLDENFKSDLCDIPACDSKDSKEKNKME

Binder | binding result (BSA) | binding result (hFc-hROR1) | further results
B1 | no binding (tested: 100 ng/50 µL) | no binding (tested: 100 ng/50 µL) | 
B2 | no binding (tested: 100 ng/50 µL) | no binding (tested: 100 ng/50 µL) | 
B3 | no binding (tested: 100 ng/50 µL) | no binding (tested: 100 ng/50 µL) | 
B4 |  |  | IC50 [1]: 0.0856 µg/mL; IC50 [2]: 0.0068 µg/mL; IC50 [3]: 0.0505 µg/mL; IC50 [4]: 0.0419 µg/mL; IC50 [5]: 0.0433 µg/mL; Kd [6]: ≤ 10.2 nM; Kd [7]: ≤ 1.1 nM
B5 | no binding (tested: 100 ng/50 µL) | no binding (tested: 100 ng/50 µL) | 
B6 | no binding (tested: 100 ng/50 µL) | no binding (tested: 100 ng/50 µL) | 
B7 | no binding (tested: 100 ng/50 µL) | no binding (tested: 100 ng/50 µL) | binding result [8]: binds
B8 | no binding (tested: 100 ng/50 µL) | no binding (tested: 100 ng/50 µL) | binding result [8]: binds
B9 | no binding (tested: 100 ng/50 µL) | no binding (tested: 100 ng/50 µL) | 
B10 | no binding (tested: 100 ng/50 µL) | no binding (tested: 100 ng/50 µL) | 
B11 | no binding (tested: 100 ng/50 µL) | no binding (tested: 100 ng/50 µL) | 
B12 |  |  | IC50 [1]: 0.0433 µg/mL; IC50 [2]: 0.0102 µg/mL; IC50 [4]: 0.00057 µg/mL
B13 | no binding (tested: 100 ng/50 µL) | no binding (tested: 100 ng/50 µL) | 
